Tested on: MS2 coat protein
Assay: apparent KD of MS2 coat protein; higher = weaker reporter binding
Conditions: Eterna round: R107
Description: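 RNA-MaP round R107: designed RNA switches with theophylline, tryptophan, arginine or FMN aptamers are transcribed on-chip within common flanks. They are titrated with SNAP-549-labelled MS2 coat protein in RNA-MaP buffer (100 mM Tris pH 7.5, 80 mM KCl, 4 mM MgCl2), without ligand or with the indicated ligand. Median apparent KD per design.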

[1] = input ligand: theophylline 20 uM
[2] = input ligand: tryptophan 2.4 mM
[3] = input ligand: theophylline 2 mM

Row | Sequence | apparent KD of MS2 coat protein (input ligand: arginine 13.2 mM) | apparent KD of MS2 coat protein [1] | apparent KD of MS2 coat protein [2] | apparent KD of MS2 coat protein (input ligand: none) | apparent KD of MS2 coat protein [3]
1 | CCUGCGUUUCUUUUCUUUCGCAGGAAUGAUACCAGUAGGGAAACCUACCCUUGGCAGCAUGGGUAACAUGAGGAUCACCCAUGUU [SSThA NP+V+V2 #5 Same Structure] | 93.2 nM | 392 nM | 343 nM |  | 
2 | AAUAAUCUAGGUGAUACCAGCUCAACAUGAGGAUCACCCAUGUGCUCAUGAAGAGCUGAGAGCCCUUGGCAGCACCUAGAUAAUA [(Theo1)-(Ms2)-(M)'-(T)'-(Theo2)_Design2] | 461 nM | 676 nM | 1100 nM | 739 nM | 28.5 nM
3 | AAUCCAAGAAAUGAUACCAGUCCCACUCAGGACAUGAGGAUCACCCAUGUAAUACAGGGAGACCCUUGGCAGCAUCGAAUAAACA [theeternabot_sameState_MS2_Theo_B_33] | 178 nM | 479 nM | 1070 nM |  | 
4 | AAUGUGAUAGUCGUACUCUCACACUGAGAAGGAGCGCGAAAGUUCGCAGGUAGGUCGCUCAGUUAUACAUGAGGAUCACCCAUGU [Edgeised] | 21.9 nM | 26.8 nM | 20.9 nM | 21 nM | 27.3 nM
5 | UCGUUUUAGUCGGCCGCCACUGUGAGCAUGGUUAACAUGAGGAUCACCCAUGUCCCGUACUAUAACAGGACCGGGACGUAGUUGC [#09 Same State - Tryptophan B] | 76.4 nM | 109 nM |  |  | 253 nM
6 | GCUGCCAUACGAAGGAGCGCUGCUGCGAUGUGGCGAACAUGAGGAUCACCCAUGUGGCAGCGGCAGGUAGGUCGCGUAUGGCAGC [#02 Exclusion - Arginine B] | 45.2 nM | 330 nM | 206 nM | 166 nM | 297 nM
7 | GCACCAGGUACGGAUACCAGACGUUGCCAAACAGGGUGACAUGAGGAUCACCCAUGUACUGUCCCUUGGCAGCCGUACCUGGUGC [EThB NP+V+V2 #4 +-Same Structure] | 20.2 nM | 53 nM | 22.6 nM |  | 
8 | UAUACAUGGGAUACCAUGGAUCCGAGUGAUACCAGCUAUCCGAAUAGCCCUUGGCAGCACAGUACAUGAGGAUCACCCAUGUAUA [Theo A SS t5] | 27.8 nM | 30.2 nM | 18.6 nM |  | 
9 | AGCUCGCAUCCUCUAGCGUCAAAGACGCGUCGAGGACCGGUACGGCCGCCACUCGACUUGAGGAACACCCAAGUCCUAGCGAGCA [TrypAX 12 #SwitchBubble #AlternativeMS2 #MS2Late #CuTurnoff] | 62.2 nM | 217 nM | 290 nM | 188 nM | 306 nM
10 | GUUUUAUCAAAAGAUGAAACAGUGGGUGAACGAGGACCGGUACGGCCGCCACUCGGACAUGAGGAUCACCCAUGUCCAUGUGAAA [AstrosExyTryA#13] | 15.4 nM | 17.1 nM | 54.1 nM | 18.4 nM | 21.1 nM
11 | GAUAUGGAAACAUGUCAGAUCCUUACCGGUCGAGGACCGGUACGGCCGCCACUCGAAAACGAGGAACAUGAGGAUCACCCAUGUA [Ex Tryptophan A 20] | 32.7 nM | 50.4 nM |  |  | 49.5 nM
12 | GGCUAGUGCAUCGAUACCAGCUACAUGAGGAUCACCCAUGUAGGAAGGGUGGUACUCGAUAGCCCUUGGCAGCGAACACCUCCGG [Quoran] | 18.7 nM | 35.7 nM | 18.8 nM |  | 
13 | AGAAUAUAGUCGGCCGCCACUCUUCAUACAUGAGGAUCACCCAUGUUUAAUUCUUGGAUAUUCUUGAGGACCGGGACAUAGGCAU [JR_SSTryptoB_Sub019] | 18 nM | 23.1 nM |  |  | 21.6 nM
14 | AGCACUGUGGCGGCCGCCACUACAUAUAGGGUGGUCAGGCCCAUAAUACAUGAGGAUCACCCAUGUAGGACCGGGCCUCAGUGCA [Omei Trp Exc B A v13] | 12.7 nM | 20 nM |  |  | 16.5 nM
15 | AUAUAUAUAUAGAAAUAUAUAUAUAUGUAACGAGGACCGGUACGGCCGCCACUCGUGCCGGUGAUAACAUGAGGAUCACCCAUGU [Ex_TrypA - Every engine approves!] | 19.8 nM | 20.9 nM | 20 nM | 16 nM | 20.3 nM
16 | CGCACAUGAGGAUCACCCAUGUGAGGGCGUCGAGGACCGGUACGGCCGCCACUCGCAGGACAUGAGGAUCACCCAUGUGCCGCCG [SSTA DOUBLE!!! :-D #4] | 39.8 nM | 131 nM |  |  | 145 nM
17 | CAGAGACAUGAGGAUCACCCAUGUUGAGAUACCAGCUUGGUAUCGAGCCCUUGGCAGCUCGCCCAUCGUCUAUAUCAGCCUGAGC [theeternabot_sameState_MS2_Theo_A_40] | 17 nM | 18.9 nM | 16.8 nM |  | 
18 | CCGCCUGCCUCACAUGAGGAUCACCCAUGUCGAGGACCGGUACGGCCGCCACUCGUCGUCGGUAAUACAGGCAUUGAAUAAUAUA [Vetire] | 12.1 nM | 14.8 nM |  |  | 12.1 nM
19 | ACAUGAGGAUCACCCAUGUAGCCUAGGGAAGGAGCGGCAUAAAAGCCAGGUAGGUCGCCCGCAUGAGGAUCACCCAUGUCAAGGA [Same State Arginine A GF7] | 42.8 nM | 81.7 nM | 61 nM | 70 nM | 74.9 nM

Row | Sequence | apparent KD of MS2 coat protein (input ligand: arginine 13.2 mM) | apparent KD of MS2 coat protein [1] | apparent KD of MS2 coat protein [2] | apparent KD of MS2 coat protein (input ligand: none) | apparent KD of MS2 coat protein [3]
20 | UGUAUGGACUGAAGGAGCGGGAAAUAAACUUGAGGAUCACCCAGGUAAUAGGCGAAAGCCACCCAGGUAGGUCGCAGUCCAUACU | 22 nM | 38.5 nM | 28.5 nM | 24.3 nM | 45.7 nM
21 | ACCUUACAUGAGGAUCACCCAUGUCGUGAUACCAGAAACCACGUAUUCCCUUGGCAGCACACCCGUGAUGAGAUUGUCGGUUUUG [theeternabot_sameState_MS2_Theo_A_43] | 42.2 nM | 86.3 nM | 49.2 nM |  | 
22 | UCGCGAUAGAGAAGGAGCGUCAACACCACUUAACAUGAGGAUCACCCAUGUGUUACUUUGUGACAGGUAGGUCGCUCUAGCGCUU [JR_Nu_ExcArginiB_Sub026] | 21.1 nM | 25.3 nM | 18.4 nM | 19.3 nM | 20.9 nM
23 | AUUUUCAUGGUCAUAUAUAUAUCUUCAGAUACCAGACUAUAUUAAGUCCCUUGGCAGCUGUUACAUGAGGAUCACCCAUGUUAUA [JR_ExcTheophyA_Sub013] | 40.1 nM | 65.3 nM | 78 nM |  | 
24 | UCGACAAGAACAAUAAACAGCACUUGAGAAGGAGCGCGGAAAUCCGCAGGUAGGUCGCUCAUGUGUACAUGAGGAUCACCCAUGU [Inveonxeed] | 32.6 nM | 49.3 nM | 34.5 nM | 39.7 nM | 40.8 nM
25 | ACAUCCAGGUUAAUCGUGGACAUGGUCGAUACCAGUAUUUUAAUCUACCCUUGGCAGCGACAUGAGGAUCACCCAUGUGCGAUGA [XTheo A #14] | 13.8 nM | 17.2 nM | 14.9 nM |  | 
26 | GGGUGGUAGGCGGCCGCCACUGAUUUUUAUUUAUAGAUGACAUGAGGAUCACCCAUGUAGAUAUGCAGGACCGGGCCUGUUGUUU [aaaO] | 16.6 nM | 22.3 nM |  |  | 19.3 nM
27 | AGACCCUUCACGGCCGCCACUCAUUUUAAGUAGAGAGAGUACAUGAGGAUCACCCAUGUGAGAGAGAGGACCGGGUGAGAUAUUA [ss-trypB-0] | 13.9 nM | 21.4 nM |  |  | 21.3 nM
28 | GGGCGCUAUCCCGCGAGGGAUAGCGUUCGACGAGGACCGGUACGGCCGCCACUCGAACGAGUGGGUACAUGAGGAUCACCCAUGU [Gaa] | 26.3 nM | 50.9 nM | 25.9 nM | 33.5 nM | 33.3 nM
29 | GUAAUUUUAAGAAGGAGCGUCGAAAAUGGGUAAACAUGAGGAUCACCCAUGUAAAGGGAACGACAGGUAGGUCGCUUAGGAUUAC [AstromonsSSArgB#23] | 113 nM | 235 nM | 198 nM | 191 nM | 220 nM
30 | AGACUGUCUUCGGACAGUCCGGACAGCCCGCGAGGACCGGUACGGCCGCCACUCGCACGAGGAUCACCCGUGUGAGGCUGUCCGA [Omei Tryp A Exc A v2] | 9.87 nM | 17.2 nM | 14.5 nM | 13.4 nM | 16.4 nM
31 | GGAUAGGACACGGCCGCCACUACCUAGGAUACUAGCAACAUUUGGGUGCACGAGGAUCACCCGUGUAGGACCGGGUGUCCUAUCG | 202 nM | 115 nM | 291 nM | 72.5 nM | 102 nM
32 | GAGGGUGAAUCUCUAGUCCGUUUGACGGAUACCAGCGAGAGGUAUCGCCCUUGGCAGCCGACGACAUGAGGAUCACCCAUGUUAA [#07 Exclusion-TheophyllineA] | 22.2 nM | 42.6 nM | 29.3 nM | 40.6 nM | 22 nM
33 | UACUUGCUGACGGCCGCCACUAGAACAUGAGGAUCACCCAUGUACCCGGUCCUAAUCCUCAUGACUAGGACCGGGUCAGCAAGAU [(Trp1)-(Ms2)-(T)'-(M)'-(Trp2)_Design2] | 26.4 nM | 42.1 nM |  |  | 35.5 nM
34 | UAUAUAUAUCACGAACUGUGGUGUAUGUCCCGAGGACCGGUACGGCCGCCACUCGCGUGGUUCCACAUGAGGAUCACCCAUGUUG [XTryp A #7] | 20.9 nM | 31.3 nM |  |  | 25.9 nM
35 | AAAUGAAGGCGAAGGAGCGGGAACAUGAGGAUCACCCAUGUGUAUGUAUGUAGUCAUGUAUCUCAGGUAGGUCGCGCUGUUACAU [Exclusion Arginine B 2] | 80 nM | 178 nM | 106 nM | 185 nM | 207 nM
36 | UGUUUGGUGCGCGAGUGUUGGAUAAUUGAUACCAGUGUAGAAGUGCGCCCUUGGCAGCGAAUCCUAACAUGAGGAUCACCCAUGU [5.X] | 49.1 nM | 52.3 nM | 39 nM |  | 
37 | GUUAUGGACCUGGAUACCAGCUGGUACGAGGGCGGUCUACAUGAGGAUCACCCAUGUGUCAGCCCUUGGCAGCCAGCAACCCGCU [Raquleer] | 10 nM | 12.6 nM | 9.92 nM | 9.39 nM | 11.9 nM
38 | GCGGAAUAAUCGGCCGCCACUAUGAGACAGGAAACUGUCACAUGAGGAUCACCCAUGUAUCCUCAUAGGACCGGGAUUAAAACGC [Melting point difference] | 76.8 nM | 109 nM |  |  | 100 nM
